Measurements taken from PMC7465787.

Tests used:
Cysteine-SpyCatcher [1] = test: pull-down; Cys-SpyCatcher on magnetic beads (50 µl, 20 mg/ml) mixed with 200 µl crude leaf filtrate of plants expressing Plastid-SpyTag; 30 min at 4 °C, chloroplast isolation buffer (10 mM HEPES-KOH pH 7.0, 0.33 M sorbitol), three washes; chloroplasts on beads read by CLSM and counted; wild type filtrate as control
Cysteine-SpyCatcher [2] = molecular target: Cysteine-SpyCatcher
Cysteine-SpyCatcher [3] = test: pull-down; Cys-SpyCatcher on magnetic beads (50 µl, 20 mg/ml) mixed with 500 µl crude leaf filtrate of plants expressing Mito-SpyTag; 30 min at 4 °C, mitochondria isolation buffer (30 mM MOPS pH 7.5, 0.3 M mannitol, 1 mM EDTA), three washes; mitochondria stained with MitoTracker Orange, read by CLSM and counted; wild type filtrate as control

| Substance | percent of beads that carry a chloroplast (Cysteine-SpyCatcher [1]) [%] | enrichment of mitochondrial fumarase activity in the bead fraction compared to the crude input fraction (Cysteine-SpyCatcher [2]) [fold] | percent of beads that carry a bound mitochondrion (Cysteine-SpyCatcher [3]) [%] |
| --- | --- | --- | --- |
| Plastid-SpyTag (OEP7-SpyTag) | 22.8 | – | – |
| Mito-SpyTag (NtHxk1-SpyTag) (from UniProt Q9SEK2 1-44) | – | 5.4 | 31.1 |
